Laboratory results taken from article doi:10.1101/216143.

Biological target: unmodified R1810 peptide of the RNAP2-CTD (human)
Test: MST

## recombinant PADI2 (peptidyl arginine deiminase 2) (from UniProt Q9Y2J8 1-665) (enzyme)
  Kd: 220 nM
